The values that follow are results of earlier work, collected in US20090069376A1, “VLA-4 Antagonists” (priority 2005, published 2009).

Bounds are passed on as bounds.

The series deals with VLA-4 (Homo sapiens, UniProt P13612). The settings on record: early clinical trials.

For natalizumab, the receptor occupancy is listed as over 80%.
